Data from publication PMC7042716 (Cell, 2020).

B1: 561_09_23 (antibody, V domains shown)
VH: QAHLFQSGAELKRPGASVRISCRADDDPYTDDDTFTKYYTHWIRQAPGQRPEWLGVISPHFARPIYSYKFQDRLTLTRDSSLTAVYLELRSLRLDDTGIYYCARDPFGERAPHYNYHMDVWGAGTTVIVSS
VL: EVVLTQSPAILSASPGDRVVLSCRASEGLDSSQLAWYRFKDGQIPRLVLFGVSNRARGTPDRFSGGGSGADFTLTISRVEREDFATYYCQRFGATPITFGGGTRLDMN
B2: 561_08_52 (antibody, V domains shown)
VH: QLVQWGGGVKRPGASVRISCQCPEDTFTKYYIHWVRQAPGRGLEWLGMVSPHGGRPFHTSEFRDRLTMTRDIHETTHHMVLSGLGVADSGTYFCARDPLGEKSPAYSHHMDVWGGGATVIVSS
VL: AVVLTQSPVTLSVSPGETAILSCRASHGLDTRHVTWFQQKRGQAPRLLIFATYRRASGVSDRFRATDSGSATDFNLTITAVEPADFATYFCQTYGAITPITFGGGTKVDLK
B3: 561_09_89 (antibody, V domains shown)
VH: QLVQWGGGVKRPGASVRISCQCPEDTFTKYYIHWVRQAPGRGLEWLGMVSPHGGRPFHTSEFRDRLTMTREIHETTHHMVLSGLGVGDSGTYFCARDPLGEKSPAYSHHMDVWGGGATVIVSS
VL: AVVLTQSPVTLSVSPGESAVLSCRASHGLDTRHVTWFQQKRGQAPRLLIFATSRRASGVSDRFRATDGGSATDFNLTITAVEPADFATYYCQTYGAITPITFGGGTKLDLK
B4: 561_01_23 (antibody, V domains shown)
VH: QLVQSGGGVRRPGASVKISCETPEYTFTKYWLHWLRQAPGRGLEWMGVVSPHGGRPMFAFEFRDRLTLTRDIHTTTHYMELRGLTSDDTAVYFCARDSFGETFRGHDQPYQMDVWGGGTTVVVSS
VL: EPVLTQSPGTLSLSPGEGATLSCRARQGFSADHVAWFQKKPGRPPRLLIFEASRRASGTPERFSGGGSGPEYTLTITRVEPEDFAVYYCQSYGSITPLVFGGGTRVDVK
B5: 561_03_07 (antibody, V domains shown)
VH: QLVQSGGGVRRPGASVKISCETPEDTFTKYWLHWLRQAPGQGLEWMGVVSPHGGRPMFAFEFRDRLTLTRDIHTTTHFMELGGLTSDDTAVYYCARDPFGETFRGHDQPYRMDVWGGGTTIVVSS
VL: EPVLTQSPGTLSVSPGEGATLSCRARQGFSADHVAWFQKKPGRPPRLLIFEASRRASGTPERFSGSGSGPEYTLTITRVEPEDFAVYYCQSYGSITPLVFGGGTRVDVK
B6: 561_03_78 (antibody, V domains shown)
VH: QLVQSGGGVRRPGASVKISCETPEYTFTKYWLHWLRQAPGRGLEWMGVVSPHGGRPMFAFEFRDRLTLTRDIHTTTHYMELGGLTSDDTAVYYCARDPFGETFRGHDQPYQMDVWGGGTTIVVSS
VL: EPVLTQSPGTLSLSPGERATLSCRARQGFSADHVAWFQKKPGRPPRLLIFEASRRASGTPERFSGSGSGPEYTLTITRVEPEDFAVYYCQSYGSITPLVFGGGTRVDVK
B7: 561_01_29 (antibody, V domains shown)
VH: QLVQSGGGVRRPGASVKVSCETPEYTFTKYWLHWLRQAPGRGLEWMGVVSPHGGRPMFAFEFRDRLTLTRDIHTTTHYMELRGLTSDDTAVYFCARDSFGETFRGHDQPYQMDLWGGGTTVVVSS
VL: EPVLTQSPGTLSLSPGEGVTLSCRARQGFSADHVAWFQKKPGRPPRLLIFETSRRASGTPERFSGGGSGPEYTLTITRVEPEDFAVYYCQSYGSITPLVFGGGTRVDVK
B8: 561_02_21 (antibody, V domains shown)
VH: QLVQSGGGVKRPGASVKISCETPEYTFTKYWLHWLRQAPGQGLEWMGVVSPHGGRPMFAFEFRDRLTLTRDIHTTTHYMELGGLTLDDTAVYYCARDPFGETFRGREQPYQMDVWGGGTTIVVTS
VL: EALLTQSPGTLSLSPGEGATLSCRARQGFSADHVAWFQKKPGRPPRLLIFEASRRASGTPERFSGSGSGPEYTLTITRVEPEDFAVYYCQSYGSITPLVFGGGTRVDVK
B9: 561_02_12 (antibody, V domains shown)
VH: QLVQSGGGVRRPGASVKISCETPEDTFTKYWLHWLRQAPGQGLEWMGVVSPHGGRPMFAFEFRDRLTLTRDIHTTTHFMELRGLTSDDTAVYYCARDPFGETFRGHDQPYRMDVWGGGTTIVVSS
VL: EPVLTQSPGTLSVSPGEGATLSCRARQGFSADHVAWFQKKPGRPPRLLIFEASRRASGTPERFSGSGSGPEYTLTITRVEAEDFAVYYCQSYGSITPLVFGGGTRVDVK
B10: 561_09_71 (antibody, V domains shown)
VH: QLAQSGGGVKKPGASVKISCVTPESTFTKYWLHWVRQAPGQGFEWLGVVSPHGGRPMFANKFRDRLTLTRDIHTTTHYMELRGLTSDDTAIYYCARDSFGETFRHSGDQPYQMDVWGGGTNIVVSS
VL: EPVLTQSPGTLSLSPGERATLSCRASQGFSVDHLAWFQKRPGRPPRLLIFETSRRANGSPDRFSGSASGAEYTLTISNVEPEDFAVYYCQSYGSITPLIFGGGTRVDVK
B11: 561_01_21 (antibody, V domains shown)
VH: QRRLFQSGTEVKRPGASVKISCRADDDPYTDDDTFTKYYTHWIRQAPGQRPEWLGVISPHFARPIYSYKFQDRLTLTRDSSLTAVYFELRGLQPDDTGIYFCARDPFGDMYPHYNYHMDVWGGGTTVIVSA
VL: EVVLTQSPAILSVSPGDRVILSCKASEGLSSSDLAWYRFKGGQIPTLVIFGTSTRARGTPDRFSGSGSGTDFTLTISRVEPEDFATYYCQRYGGTPITFGGGTTLDKK
B12: 561_10_07 (antibody, V domains shown)
VH: QGRFFQSGAEVKRPGASVRISCRADDDPYTDDDTFTKYWTHWIRQAPGQRPEWLGVISPHFARPIYSYKFRDRLTLTRDSSLTAVYLELQGLQPDDSGIYYCARDPFGDRAPHYNYHMDVWGGGTAVIVSS
VL: EVVLTQSPAILSVSPGDRVILSCRASEGLDPTHLAWYRFKRGQIPTLVIFGTSNRARGTPDRFSGSGSEADFTLTITRVEPEDFATYYCQRYGGTPITFGGGTTLDKK
B13: 561_02_22 (antibody, V domains shown)
VH: QGRLFQSGAEVKRPGASVKISCRADDDPYTDDDTFTKYYTHWIRQAPGQRPEWLGVISPHFARPIYSYKFRDRLTLTRDSSLTAVYFELRGLQPDDTGIYFCARDPFGDMYPHYNYHMDVWGGGTTVIVSA
VL: EVVLTQSPAILSVSPGDRVILSCKASEGLSSSDLAWYRFKGGQIPTLVIFATSNRARGTPDRFSGSGSGTDFTLTISKVQPEDFATYYCQRYGGTPITFGGGTTLDKK
B14: 561_02_10 (antibody, V domains shown)
VH: QGRLFQSGTEVKRPGASVKISCRADDDPYTDDDTFTKYHTHWIRQAPGQRPEWLGVISPHYARPIYSYKFQDRLTLTRDSSLTAVYFELRGLQPDDTGIYFCARDPFGNMYPHYNYHMDVWGGGTTVIVSA
VL: EVVLTQSPAILSVSPGDRVILSCKASEGLSSSDLAWYRFKRGQIPTLVIFGASTRARGTPDRFSGSGSGTDFTLTINRVEPEDFATYYCQRYGGTPITFGGGTTLDKK
B15: 561_01_33 (antibody, V domains shown)
VH: QGRLFQSGTEVKRPGASVKISCRADDDPYTDDDTFTKYYTHWIRQAPGQRPEWLGVISPHFARPIYSYKFRDRLTLTRDSSLTAVYFELRGLQPDDTGIYFCARDPFGDMYPHYNYHMDVWGGGTTVIVSA
VL: EVVLTQSPAILSVSPGDRVILSCKASEGLSSSDLAWYRFKGGQIPTLVIFGTSNRARGTPDRFSGSGSGTDFTLTINRVQPEDFATYYCQRYGGTPITFGGGTTLDKK
B16: 561_01_54 (antibody, V domains shown)
VH: QGRLFQSGTEVKRPGASVKISCRADDDPYTDDDTFTKYYTHWIRQAPGQRPEWLGVISPHFARPIYSYKFQDRLTLTRDSSLTAVYFELRDLQSDDTGIYFCARDPFGDMYPHYNSHMDVWGGGTTVIVSA
VL: EVVLTQSPAILSVSPGDRVILSCKASEGLSSSDLAWYRFKSGQIPTLVIFGASNRARGTPDRFSGSGSGTDFTLTINRVEPEDFATYYCQRYGGTPITFGGGTTLDKK
B17: 561_02_27 (antibody, V domains shown)
VH: QGRLFQSGTEVKRPGASVKISCRADDDPYTDDDTFTKYYTHWIRQAPGQRPEWLGVISPHYARPIYSYKFRDRLTLTRDSSLTAVYFELRGLQPDDTGIYFCARDPFGDMYPHYNYHMDVWGGGTTVIVSA
VL: EVVLTQSPAILSVSPGDRVILSCKASEGLSSSDLAWYRFKGGQIPTLVIFGASNRARGTPDRFSGSGSGTDFTLTINRVEPEDFATYYCQRYGGTPITFGGGTTLDKK
B18: 561_02_47 (antibody, V domains shown)
V domain 1: QRRLFQSGTEVKRPGASVKISCRADDDPYTDDDTFTKYYTHWIRQAPGQRPEWLGVISPHYARPIYSYKFQDRLTLTRDSSLTAVYFELRGLQPDDTGIYFCARDPFGDMYPHYNYHMDVWGGGTTLIVSA
V domain 2: EVVLTQSPAILSVSPGDRVILSCKASEGLSSSDLAWYRFKSGQIPTLVIFGASNRARGTPDRFAGSGSGTDFTLTINRVEPEDFATYYCQRYGGTPITFGGGTTLDKK
B19: 561_03_59 (antibody, V domains shown)
VH: QRRLFQSGTEVKRPGASVRISCRADDDPYTDDDTFTKYWTHWIRQAPGQRPEWLGVISPHFARPIYSYKFQDRLTLTRDSSLTGVYLELKGLQLDDSGIYFCARDPFGDRAPHYNYHMDVWGGGTAVIVSS
VL: EVVLTQSPAILSVSPGDRVSFSCRASEGLDTSQLAWYRFKRGQIPTLVIFATSNRARGTPDRFSGSGSGADFTLTINRVEPEDFATYYCQRYGATPITFGGGTTLDKK

What was measured:
[1] = biological target: YU2_(gp140) (foldon trimer) (HIV-1 (strain YU2))
[2] = biological target: BG505_(SOSIP.664) Env trimer (HIV-1 BG505 (clade A), SOSIP.664 with …, stabilised)

Row | Binder | binding result [1] | binding result [2]
1 | B1 | binds | binds
2 | B2 | binds | binds
3 | B3 | binds | binds
4 | B4 | binds | binds
5 | B5 | binds | binds
6 | B6 | binds | binds
7 | B7 | binds | binds
8 | B8 | binds | binds
9 | B9 | binds | binds
10 | B10 | binds | binds
11 | B11 | binds | binds
12 | B12 | binds | binds
13 | B13 | binds | binds
14 | B14 | binds | binds
15 | B15 | binds | binds
16 | B16 | binds | binds
17 | B17 | binds | binds
18 | B18 | binds | binds
19 | B19 | binds | binds
